T1: YFP^N-Gle1 (Arabidopsis, UniProt Q0WPZ7 1-611)
T1 construct: BiFC construct expressed in N. benthamiana leaves by agroinfiltration; also called YFP^N-fusion protein of Arabidopsis Gle1; not shown: N-terminal fragment of YFP (YFP^N) for BiFC
T1 sequence: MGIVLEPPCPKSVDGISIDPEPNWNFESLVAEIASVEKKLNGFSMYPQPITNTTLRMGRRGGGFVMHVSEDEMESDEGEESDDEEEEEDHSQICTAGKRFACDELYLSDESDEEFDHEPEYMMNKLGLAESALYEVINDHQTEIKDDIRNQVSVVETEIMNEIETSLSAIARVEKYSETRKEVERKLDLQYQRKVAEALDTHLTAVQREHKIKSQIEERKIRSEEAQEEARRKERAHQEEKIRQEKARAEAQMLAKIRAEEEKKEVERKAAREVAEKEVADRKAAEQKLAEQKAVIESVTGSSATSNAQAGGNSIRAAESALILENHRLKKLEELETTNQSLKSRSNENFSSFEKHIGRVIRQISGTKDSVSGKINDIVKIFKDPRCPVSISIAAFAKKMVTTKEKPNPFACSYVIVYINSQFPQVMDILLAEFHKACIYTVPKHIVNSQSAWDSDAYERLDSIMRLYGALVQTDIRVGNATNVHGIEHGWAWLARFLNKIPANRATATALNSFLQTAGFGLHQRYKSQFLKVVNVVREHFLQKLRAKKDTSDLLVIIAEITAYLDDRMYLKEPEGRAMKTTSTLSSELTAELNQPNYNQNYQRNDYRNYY

T2: LOS4 (BiFC fusion protein, FIG. 8B) (Arabidopsis, UniProt Q93ZG7 1-496)
T2 construct: not shown: YFP fragment for BiFC
T2 sequence (looked up): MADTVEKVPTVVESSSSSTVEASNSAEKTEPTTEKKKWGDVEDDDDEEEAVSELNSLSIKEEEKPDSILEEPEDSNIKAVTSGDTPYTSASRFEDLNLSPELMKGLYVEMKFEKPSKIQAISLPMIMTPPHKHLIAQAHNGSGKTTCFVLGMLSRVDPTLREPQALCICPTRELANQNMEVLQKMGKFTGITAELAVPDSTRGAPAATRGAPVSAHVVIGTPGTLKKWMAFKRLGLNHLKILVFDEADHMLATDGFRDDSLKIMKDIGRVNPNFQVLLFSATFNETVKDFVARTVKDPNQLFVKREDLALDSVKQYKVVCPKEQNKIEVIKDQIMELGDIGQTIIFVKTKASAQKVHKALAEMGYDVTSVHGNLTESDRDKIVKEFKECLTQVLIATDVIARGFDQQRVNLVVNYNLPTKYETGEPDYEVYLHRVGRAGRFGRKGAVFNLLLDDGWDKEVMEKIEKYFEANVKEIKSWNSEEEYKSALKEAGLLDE

B1: LOS4-YFP^C (other, Arabidopsis, UniProt Q93ZG7 1-496, looked up)
chain: T2 sequence (looked up)
notes: BiFC construct expressed in N. benthamiana leaves by agroinfiltration; also called YFP^C-fusion protein of LOS4; not shown: C-terminal fragment of YFP (YFP^C) for BiFC
B2: IPK1 (BiFC fusion protein, FIG. 8B) (enzyme, Arabidopsis, UniProt Q93YN9 1-451, looked up)
chain: MEMILEEKDASDWIYRGEGGANLVLAYAGSSPLFVGKVIRIQKARRNDKAIKNANGVVSVLTSDEQHLWRENNELISSPNKEVLEQRYVKNVIIPLLGPKHVDAGVRVSVSKEFLECVDKKVTKQRPLWRVNAANVDTSHDSALILNDHSLFSQGISSGGDCISVEIKPKCGFLPTSRFIGKENMLKTSVSRFKMHQLLKLEYNEISEESEYDPLDLFSGSKESVLEAIKALYSTPQNNFRVFLNGSLILGGSGESTGRTSPEIGYAFEDALKGFIQSEDGHRTECFLQLVSDAVYGSGVLDRLLEIQKLDKLDIEGAIHSYYDLINQPCPICKEGKPLEAELSLHALPLDESLKIVKEYLIAATAKDCSIMISFQSRNAWDSEPSGDYVSLKPTNQTFDYKVHFIDLSLKPLKRMESYYKLDKKIISFYNRKQKAENTAEQIGNSKPSHS
notes: Expressed in N. benthamiana leaves by agroinfiltration; also called inositol 1,3,4,5,6-pentakisphosphate 2-kinase; not shown: YFP fragment for BiFC
B3: maltose-binding protein (MBP)-fused Gle1 (MBP-Gle1) (other, not shown: large carriers)
chain: T1 sequence
B4: 6x-histidine-fused LOS4 (LOS4-His) (enzyme)
chain: MADTVEKVPTVVESSSSSTVEASNSAEKTEPTTEKKKWGDVEDDDDEEEAVSELNSLSIKEEEKPDSILEEPEDSNIKAVTSGDTPYTSASRFEDLNLSPELMKGLYVEMKFEKPSKIQAISLPMIMTPPHKHLIAQAHNGSGKTTCFVLGMLSRVDPTLREPQALCICPTRELANQNMEVLQKMGKFTGITAELAVPDSTRGAPAATRGAPVSAHVVIGTPGTLKKWMAFKRLGLNHLKILVFDEADHMLATDGFRDDSLKIMKDIGRVNPNFQVLLFSATFNETVKDFVARTVKDPNQLFVKREDLALDSVKQYKVVCPKEQNKIEVIKDQIMELGDIGQTIIFVKTKASAQKVHKALAEMGYDVTSVHGNLTESDRDKIVKEFKECLTQVLIATDVIARGFDQQRVNLVVNYNLPTKYETGEPDYEVYLHRVGRAGRFGRKGAVFNLLLDDGWDKEVMEKIEKYFEANVKEIKSWNSEEEYKSALKEAGLLDEHHHHHH
notes: Recombinant protein from E. coli Rosetta (DE3); also called LOS-His

For one assay, the target named is T1, YFP^N-Gle1. Nature of the assay: BiFC in N. benthamiana leaves (agroinfiltration), confocal microscopy.
Assay [1] has as its target T2, LOS4 (BiFC fusion protein, FIG. 8B). As to the kind of experiment: BiFC (FIG. 8), told again in the discussion.
Assay [2] concerns the target B4. As to the kind of experiment: cell-based or functional assay.
For assay [3], the target named is maltose-binding protein (MBP) (UniProt P0AEX9 27-392 = MBP). As to the kind of experiment: in vitro pull-down on nickel resin, Coomassie blue staining. An excerpt: Purified recombinant proteins are stained with Coomassie blue (left). A mixture of the proteins is bound to a nickel resin or amylose resin, and the resin-bound proteins are eluted and then stained with Coomassie blue (right);
After extensive washing of the resins, the bound proteins were eluted with 2×SDS sample buffer, and the eluted proteins were visualized by Coomassie blue staining.

With B1, in the assay with YFP^N-Gle1, the binding result was “binds”.

For B2, the binding result in assay [1] is “binds”.

For the molecule B3, in assay [2], the “LOS4 ATPase activity with RNA and MBP-Gle1 (2 µM), LOS4-His 1 µM” value is ~3 fold; the “LOS4 ATPase activity with RNA, MBP-Gle1 (2 µM) and InsP6 (10 µM)” value is > 4 fold.

For B4, the binding result in assay [3] is “no binding”.
